The target of assay [1] is T1, biotinylated human VWF cysteine knot (CK) domain construct (human, UniProt P04275 2724-2813, biotinylated in vitro (BirA) on the biotinylation tag; one N-glycan).
T1 construct: Expressed in HEK293 EBNA cells; disulfide-linked homodimer; also called human VWF CK; human VWF CK domain; not shown: in vitro biotinylation tag, HRV-3C site and 3 VWF residues before the CK domain
Description: SPR, scFv captured via anti-SV5, CK domain injected, pH 5.5, apparent Kd.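 Also: scFvs from crude yeast supernatants captured on chip-bound anti-SV5 antibody, Kd computed as koff divided by kon, dimeric CK construct likely makes affinity appear higher.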 A general note: Surface plasmon resonance follows binding to a sensor surface in real time, without labels.

The target in assay [2] is T1, biotinylated human VWF cysteine knot …. Description: SPR, scFv captured via anti-SV5, CK domain injected, pH 7.4, apparent Kd.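 Also: scFvs from crude yeast supernatants printed on an amine-coupled anti-SV5 lawn, Kd computed as koff over kon, likely overestimating affinity because the CK construct is dimeric.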
Description: Briefly, a sensor chip was activated and coupled with an anti-SV5 mouse monoclonal antibody using amine coupling. The soluble scFvs in crude yeast supernatants were printed on the anti-SV5 lawn. […] From the measured association (kₒₙ) and dissociation (koff) rate constants, an apparent equilibrium dissociation constant (Kd=koff/kₒₙ) was estimated. Due to the dimeric state of the CK construct and consequent possibility for simultaneous binding of captured scFv to both monomers in the CK dimer, the SPR setup was expected to overestimate the binding affinity.
In assay [3] the target is T2, biotinylated cynomolgus monkey VWF cysteine knot (CK) domain construct (cynomolgus monkey, biotinylated in vitro (BirA) on the biotinylation tag; one N-glycan).
T2 construct: Expressed in HEK293 EBNA cells; disulfide-linked homodimer; also called cyno VWF CK; cyno VWF CK domain; not shown: in vitro biotinylation tag, HRV-3C site and 3 VWF residues before the CK domain
T2 chain: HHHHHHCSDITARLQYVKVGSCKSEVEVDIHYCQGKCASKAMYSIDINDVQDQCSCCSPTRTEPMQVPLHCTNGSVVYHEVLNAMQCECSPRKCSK
The description is as above.

We go through 16 molecules from US20250154283A1 (published 2025).

B1: 7046_Lib8_scFv (scFv)
scFv: EVQLVESGGGLVQPGRSLRLSCAASGFNFHNYDMHWVRQAPGKGLEWVSAISGSGYTADYADSVEGRFTISRDNAKNSLYLQMNSLRAEDTAVYYCAKSHSSGWSSAFDIWGQGTMVTVSSSGGSTITSYNVYYTKLSSSGTDIQMTQSPSSLSASVGDRVTITCRASQTIGYWLAWYQQKPGKAPKLLIYDATNLATGVPSRFSGSGSGTDFTLTISSLQPEDVATYYCQHYNPYSQVTFGGGTKVEIK
notes: VH-linker-VL; not shown: C-terminal 3xFLAG and SV5 tags
As to B1, the Kd in assay [1] stood at 1.16 nM; in assay [2], 0.088 nM; in assay [3], 0.002 nM.

B2: 9621_Lib8_scFv (scFv)
scFv: EVQLVESGGGLVQPGRSLRLSCAASGFSFSMYAMHWVRQAPGKGLEWVSAISPSGDATDYADSVEGRFTISRDNAKNSLYLQMNSLRAEDTAVYYCARGMQDYGHYYYYYMDVWGKGTTVTVSSSGGSTITSYNVYYTKLSSSGTDIQMTQSPSSLSASVGDRVTITCRASQDISTSLAWYQQKPGKAPKLLIYGASSLETGVPSRFSGSGSGTDFTLTISSLQPEDVATYYCQQGYIAPRTFGGGTKVEIK
notes: as for B1
With B2, the Kd came to 2.28 nM in assay [1], 0.217 nM in assay [2] and 0.137 nM in assay [3].

B3: Lib4_P2_A5_scFv (scFv)
scFv: QVQLQESGPGLVKPSQTLSLTCTVSGSSISSSSDYWSWIRQPPGKGLEWIGYIDISGDADYNPSLKSRVTMSVDTSKNQFSLKVNSVTAADTAVYYCARHLSSGWYGTYYFDYWGQGTLVTVSSSGGSTITSYNVYYTKLSSSGTEIVMTQSPATLSLSPGERATLSCRASQNIHSNLAWYQQKPGQAPRLLIYDASSRATGIPARFSGSGSGTDFTLTISSLEPEDFAVYYCQQGYTKPLTFGGGTKVEIK
notes: as for B1
B3: the Kd in assay [1] was 0.123 nM; in assay [2], 0.493 nM; in assay [3] it was 0.128 nM.

B4: Lib1_P1_D1_scFv (scFv)
scFv: QVQLVQSGAEVKKPGASVKVSCKVSGDTFTDRYIHWVRQAPGKGLEWMGGINTIFGTAIYAQKFQGRVTMTEDTSTDTAYMELSSLKSEDTAVYYCAREGATVSTNFDYWGQGTLVTVSSSGGSTITSYNVYYTKLSSSGTDIQMTQSPSSVSASVGDRVTITCRASQDIRKSLAWYQQKPGKAPKLLIYDISNRPSGVPSRFSGSGSGTDFTLTISSLQPEDFANYYCQQGYSAPYGFGGGTKVEIK
notes: as for B1
For the molecule B4, the values for the Kd in assay [1], in assay [2] and in assay [3] were 0.338 nM, 0.589 nM and 0.187 nM, respectively.

B5: 5802_Lib4_scFv (scFv)
scFv: QVQLQESGPGLVKPSQTLSLTCTVSGYSISSGDYHWSWIRQPPGKGLEWIGYINPSGSADYNPSLKSRVTMSVDTSKNQFSLKVNSVTAADTAVYYCARDGVAATYYYYYGMDVWGQGTTVTVSSSGGSTITSYNVYYTKLSSSGTEIVMTQSPATLSLSPGERATLSCRASHSIGSNLAWYQQKPGQAPRLLIYDATTRATGIPARFSGSGSGTDFTLTISSLEPEDFAVYYCQQAYSFPLTFGGGTKVEIK
notes: as for B1
Take B5: the values for the Kd in assay [1], in assay [2] and in assay [3] were 1.09 nM, 0.101 nM and 0.016 nM, respectively.

B6: 16_Lib8_scFv (scFv)
scFv: EVQLVESGGGLVQPGRSLRLSCAASGFRFDEYDMHWVRQAPGKGLEWVSAISSESASIDYADSVEGRFTISRDNAKNSLYLQMNSLRAEDTAVYYCARDGAYGDYFDYWGQGTMVTVSSSGGSTITSYNVYYTKLSSSGTDIQMTQSPSSLSASVGDRVTITCRASQDIKSWLAWYQQKPGKAPKLLIYGASTLQSGVPSRFSGSGSGTDFTLTISSLQPEDVATYYCQQSYSAPYTFGGGTKVEIK
notes: as for B1
Regarding B6, the Kd in assay [1] came to 1.05 nM; in assay [2], 2.11 nM.

B7: 1374_Lib8_scFv (scFv)
scFv: EVQLVESGGGLVQPGRSLRLSCAASGVDFSTYAMHWVRQAPGKGLEWVSAISSSGAYTDYADSVEGRFTISRDNAKNSLYLQMNSLRAEDTAVYYCATDRGPFSGYGTQGWFDPWGQGTLVTVSSSGGSTITSYNVYYTKLSSSGTDIQMTQSPSSLSASVGDRVTITCRASQTIRSYLAWYQQKPGKAPKLLIYGASDLQSGVPSRFSGSGSGTDFTLTISSLQPEDVATYYCQQYANFPITFGGGTKVEIK
notes: as for B1
With B7, the results for the Kd in assay [1], in assay [2] and in assay [3] were 0.043 nM, 0.116 nM and 0.061 nM, respectively.

B8: 1405_Lib8_scFv (scFv)
scFv: EVQLVESGGGLVQPGRSLRLSCAASGVDFSTYAMHWVRQAPGKGLEWVSAISSSGAYTDYADSVEGRFTISRDNAKNSLYLQMNSLRAEDTAVYYCATDRGPFSGYGTQGWFDPWGQGTLVTVSSSGGSTITSYNVYYTKLSSSGTDIQMTQSPSSLSASVGDRVTITCRASRDITSYLAWYQQKPGKAPKLLIYHASTLEAGVPSRFSGSGSGTDFTLTISSLQPEDVATYYCQQYGDFPPTFGGGTKVEIK
notes: as for B1
For the molecule B8, the Kd in assay [1] was 0.389 nM; in assay [2], 0.305 nM; in assay [3] it was 0.039 nM.

B9: Lib1_P1_A2_scFv (scFv)
scFv: QVQLVQSGAEVKKPGASVKVSCKVSEGTLSRHYINWVRQAPGKGLEWMGGINAKSGATIYAQKFQGRVTMTEDTSTDTAYMELSSLKSEDTAVYYCAKDTGDDILTDYSDAFDIWGQGTMVTVSSSGGSTITSYNVYYTKLSSSGTDIQMTQSPSSVSASVGDRVTITCRASQNIGTSLAWYQQKPGKAPKLLIYGASNLESGVPSRFSGSGSGTDFTLTISSLQPEDFANYYCLQYNDWPPLYSFGGGTKVEIK
notes: as for B1
Turning to B9, the Kd worked out at 0.076 nM in assay [1] and 1.78 nM in assay [2].

B10: Lib4_P2_A11_scFv (scFv)
scFv: QVQLQESGPGLVKPSQTLSLTCTVSGVTFSSYGWSWIRQPPGKGLEWIGYVDTSGSTDYNPSLKSRVTMSVDTSKNQFSLKVNSVTAADTAVYYCARTTYYYDSSGFARGWFDPWGQGTLVTVSSSGGSTITSYNVYYTKLSSSGTEIVMTQSPATLSLSPGERATLSCRASRSISTNLAWYQRKPGQAPRLLIYDTSNRAPGIPARFSGSGSGTDFTLTISSLEPEDFAVYYCLQYDVSPYTFGGGTKVEIK
notes: VH-linker-VL; also called Lib4_P2_All; not shown: C-terminal 3xFLAG and SV5 tags
Turning to B10, the Kd in assay [1] is 0.033 nM; in assay [2], 3.11 nM.

B11: Lib4_P2_H3_scFv (scFv)
scFv: QVQLQESGPGLVKPSQTLSLTCTVSGSTFGDYAWSWIRQPPGKGLEWIGYINHIGNADYNPSLKSRVTMSVDTSKNQFSLKVNSVTAADTAVYYCARDGVESPEVPNYYYYGMDVWGQGTTVTVSSSGGSTITSYNVYYTKLSSSGTEIVMTQSPATLSLSPGERATLSCRASHSIGSNLAWYQQKPGQAPRLLIYDATNRAPGIPARFSGSGSGTDFTLTISSLEPEDFAVYYCQQSYTNPTFGGGTKVEIK
notes: as for B1
Turning to B11, the Kd in assay [1] is 0.075 nM; in assay [2], 0.307 nM; in assay [3] it was 0.134 nM.

B12: 9301_Lib8_scFv (scFv)
scFv: EVQLVESGGGLVQPGRSLRLSCAASGFNFHNYDMHWVRQAPGKGLEWVSAISGSGYTADYADSVEGRFTISRDNAKNSLYLQMNSLRAEDTAVYYCAKSHSSGWSSAFDIWGQGTMVTVSSSGGSTITSYNVYYTKLSSSGTDIQMTQSPSSLSASVGDRVTITCRASQTIGYWLAWYQQKPGKAPKLLIYDASVPESGVPSRFSGSGSGTDFTLTISSLQPEDVATYYCQQTLSSPWTFGGGTKVEIK
notes: as for B1
Consider B12, for which the Kd in assay [1] turned out to be 0.039 nM; in assay [2] it was 0.167 nM; in assay [3] it was 0.684 nM.

B13: 8226_Lib8_scFv (scFv)
scFv: EVQLVESGGGLVQPGRSLRLSCAASGFNFHNYDMHWVRQAPGKGLEWVSAISGGAVSTDYADSVEGRFTISRDNAKNSLYLQMNSLRAEDTAVYYCARSSWYGGQIDFWGQGTLVTVSSSGGSTITSYNVYYTKLSSSGTDIQMTQSPSSLSASVGDRVTITCRASQDISGWLAWYQQKPGKAPKLLIYAASSLQDGVPSRFSGSGSGTDFTLTISSLQPEDVATYYCQQSYRIPSTFGGGTKVEIK
notes: as for B1
Regarding B13, the Kd in assay [1] is 1.38 nM; in assay [2] it was 3.17 nM; in assay [3], 0.55 nM.

B14: 1081_Lib8_scFv (scFv)
scFv: EVQLVESGGGLVQPGRSLRLSCAASGFNFHNYDMHWVRQAPGKGLEWVSAISGGAVSTDYADSVEGRFTISRDNAKNSLYLQMNSLRAEDTAVYYCARSSWYGGQIDFWGQGTLVTVSSSGGSTITSYNVYYTKLSSSGTDIQMTQSPSSLSASVGDRVTITCRASESVSSWLAWYQQKPGKAPKLLIYGASTLEGGVPSRFSGSGSGTDFTLTISSLQPEDVATYYCQQAYRTPVTFGGGTKVEIK
notes: as for B1
For the molecule B14, the Kd in assay [1] worked out at 0.274 nM; in assay [2], 0.391 nM; in assay [3], 0.167 nM.

B15: Lib8_P4_C10_scFv (scFv)
scFv: EVQLVESGGGLVQPGRSLRLSCAASGFNFHNYDMHWVRQAPGKGLEWVSAISGSSDTMDYADSVEGRFTISRDNAKNSLYLQMNSLRAEDTAVYYCVRASWYGTFFDYWGQGTLVTVSSSGGSTITSYNVYYTKLSSSGTDIQMTQSPSSLSASVGDRVTITCRASQDISGWLAWYQQKPGKAPKLLIYAASSLQDGVPSRFSGSGSGTDFTLTISSLQPEDVATYYCQQSYRIPSTFGGGTKVEIK
notes: as for B1
Regarding B15, the Kd in assay [1] was 0.487 nM; in assay [2], 3.15 nM; in assay [3] it was 1.01 nM.

B16: Lib1_P1_A6_scFv (scFv)
scFv: QVQLVQSGAEVKKPGASVKVSCKVSGSTFSNYAIHWVRQAPGKGLEWMGGIVPLSGTAIYAQKFQGRVTMTEDTSTDTAYMELSSLKSEDTAVYYCARDQGESSGWYAIYYGMDVWGQGTTVTVSSSGGSTITSYNVYYTKLSSSGTDIQMTQSPSSVSASVGDRVTITCRASQGIGTWLAWYQQKPGKAPKLLIYGSSSRASGVPSRFSGSGSGTDFTLTISSLQPEDFANYYCQQSYGKPTFGGGTKVEIK
notes: as for B1
Consider B16, for which the Kd in assay [1] amounted to 0.045 nM; in assay [2], 0.092 nM; in assay [3] it was 0.059 nM.
